Eleven molecules from patent US20190218277A1 (Chugai, published 2019) can be followed below.

Assay [1] deals with T1, Recombinant soluble E protein (0.8E-His) from DENV-4 (DENV-4, UniProt P09866 280-674).
T1 construct: also called DENV-4 E protein; DV4

Assay [2] concerns the target T2, Recombinant soluble E protein (0.8E-His) from DENV-1 (DENV-1, UniProt P27909 281-675).
T2 construct: also called DENV-1 E protein; DV1

Assay [3] addresses T3, Recombinant soluble E protein (0.8E-His) from DENV-3 (DENV-3, UniProt P27915 281-673).
T3 construct: also called DENV-3 E protein; DV3

Assay [4] addresses T2, Recombinant soluble E protein …. The source holds these as a separate data set.
The target in assay [5] is T4, Recombinant soluble E protein (0.8E-His) from DENV-2 (DENV-2, UniProt P14340 281-675).
T4 construct: also called DENV-2 E protein; DV2

The next assay addresses T5, human FcγRIIIa (158V) (human, UniProt P08637 17-208).
T5 construct: also called human FcγR3a allelic variant 158V
Briefly: SPR (Biacore T200, pH 7.4, 25 °C): His-tagged FcγR captured by anti-His antibody; antibody injected at 100 nM alone (Ab alone) or as 1:1 complex with trimeric CD154 (CD154 IC); binding level / capture level [F].

In assay [6] the target is mouse C1q (from 10% mouse plasma) (mouse, UniProt P98086 23-245; P14106 26-253; Q02105 30-246). Briefly: ELISA: antibody coated on the plate at the concentration shown, 10% mouse plasma added, detected with biotinylated anti-mouse C1q and streptavidin-HRP, OD 405 nm.
Sequence of mouse C1q (from 10% mouse plasma) (P98086 23-245 limits assumed, chain 1 of 3): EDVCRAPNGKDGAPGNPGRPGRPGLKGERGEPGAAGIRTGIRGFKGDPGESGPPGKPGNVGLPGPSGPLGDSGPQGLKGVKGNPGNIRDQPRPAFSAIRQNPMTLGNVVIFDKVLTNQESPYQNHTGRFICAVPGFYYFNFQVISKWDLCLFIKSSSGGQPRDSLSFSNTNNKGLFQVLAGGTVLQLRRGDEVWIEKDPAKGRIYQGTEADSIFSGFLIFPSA
Sequence of mouse C1q (from 10% mouse plasma) (P14106 26-253 limits assumed, chain 2 of 3): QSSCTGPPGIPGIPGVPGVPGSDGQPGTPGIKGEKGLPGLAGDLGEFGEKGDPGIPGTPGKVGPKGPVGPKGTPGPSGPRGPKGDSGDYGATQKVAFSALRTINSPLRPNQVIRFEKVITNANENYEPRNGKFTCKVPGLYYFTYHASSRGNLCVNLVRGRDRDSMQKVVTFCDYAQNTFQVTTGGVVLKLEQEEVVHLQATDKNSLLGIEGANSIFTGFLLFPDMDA
Sequence of mouse C1q (from 10% mouse plasma) (Q02105 30-246 limits assumed, chain 3 of 3): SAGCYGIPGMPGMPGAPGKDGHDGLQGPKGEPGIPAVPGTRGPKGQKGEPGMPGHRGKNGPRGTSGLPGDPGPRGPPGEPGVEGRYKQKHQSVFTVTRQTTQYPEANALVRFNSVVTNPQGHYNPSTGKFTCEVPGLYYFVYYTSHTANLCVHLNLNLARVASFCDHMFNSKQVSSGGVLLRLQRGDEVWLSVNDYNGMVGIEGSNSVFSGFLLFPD
For another assay, the target named is T6, human FcγRIa (human, UniProt P12314 16-292).
T6 construct: also called human FcγR1a
T6 sequence (P12314 16-292 limits assumed): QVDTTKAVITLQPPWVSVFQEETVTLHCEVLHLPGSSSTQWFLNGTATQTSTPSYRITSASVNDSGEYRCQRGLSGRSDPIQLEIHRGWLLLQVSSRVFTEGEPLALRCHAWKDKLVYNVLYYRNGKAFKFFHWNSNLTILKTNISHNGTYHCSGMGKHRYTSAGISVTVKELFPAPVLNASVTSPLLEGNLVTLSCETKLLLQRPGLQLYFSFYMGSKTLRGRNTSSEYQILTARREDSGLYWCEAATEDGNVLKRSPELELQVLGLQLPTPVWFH
Briefly: SPR (Biacore T200, pH 7.4, 25 °C): His-tagged FcγR captured by anti-His antibody; antibody injected at 100 nM alone (Ab alone) or as 1:1 complex with trimeric CD154 (CD154 IC); binding level / capture level [A].

The target of another assay is human C1q (Calbiochem) (human, UniProt P02745 23-245; P02746 28-253; P02747 29-245). As to the kind of experiment: ELISA: antibody coated on the plate at the concentration shown, human C1q added, detected with HRP anti-human C1q, OD 450 nm.
Sequence of human C1q (Calbiochem) (P02745 23-245 limits assumed, chain 1 of 3): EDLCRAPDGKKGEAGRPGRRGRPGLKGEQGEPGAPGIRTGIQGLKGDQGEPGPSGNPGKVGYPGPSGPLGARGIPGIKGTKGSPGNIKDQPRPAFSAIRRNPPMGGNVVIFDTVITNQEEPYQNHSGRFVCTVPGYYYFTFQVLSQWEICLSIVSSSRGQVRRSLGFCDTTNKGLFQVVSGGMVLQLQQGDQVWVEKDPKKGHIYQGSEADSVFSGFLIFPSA
Sequence of human C1q (Calbiochem) (P02746 28-253 limits assumed, chain 2 of 3): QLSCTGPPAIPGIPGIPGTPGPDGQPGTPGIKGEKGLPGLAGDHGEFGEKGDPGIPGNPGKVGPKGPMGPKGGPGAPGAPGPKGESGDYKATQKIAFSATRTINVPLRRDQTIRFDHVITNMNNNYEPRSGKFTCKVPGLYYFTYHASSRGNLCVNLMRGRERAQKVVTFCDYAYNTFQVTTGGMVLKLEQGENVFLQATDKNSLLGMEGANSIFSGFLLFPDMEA
Sequence of human C1q (Calbiochem) (P02747 29-245 limits assumed, chain 3 of 3): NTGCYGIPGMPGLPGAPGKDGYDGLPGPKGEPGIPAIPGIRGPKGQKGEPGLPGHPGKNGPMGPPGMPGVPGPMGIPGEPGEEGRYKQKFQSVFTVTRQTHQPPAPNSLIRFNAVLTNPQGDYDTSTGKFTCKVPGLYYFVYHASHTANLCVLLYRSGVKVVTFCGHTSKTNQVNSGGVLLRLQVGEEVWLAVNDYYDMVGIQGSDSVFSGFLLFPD
The target in a further assay is T7, mouse FcγRIII (mouse, UniProt P08508 31-215).
T7 construct: also called mFcγRIII; mouse FcγR3
T7 chain: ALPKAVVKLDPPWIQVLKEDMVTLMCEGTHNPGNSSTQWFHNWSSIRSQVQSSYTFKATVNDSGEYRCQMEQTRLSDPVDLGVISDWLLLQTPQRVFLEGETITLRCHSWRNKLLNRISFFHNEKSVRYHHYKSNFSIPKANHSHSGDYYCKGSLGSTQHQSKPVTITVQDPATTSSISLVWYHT
As to the kind of experiment: SPR (Biacore T200, pH 7.4, 25 °C): His-tagged FcγR captured by anti-His antibody; antibody injected at 100 nM alone (Ab alone) or as 1:1 complex with trimeric CD154 (CD154 IC); binding level / capture level [C].

A further assay addresses T8, mouse FcγRI (mouse, UniProt P26151 25-297).
T8 construct: also called mFcγRI; mouse FcγR1
T8 sequence: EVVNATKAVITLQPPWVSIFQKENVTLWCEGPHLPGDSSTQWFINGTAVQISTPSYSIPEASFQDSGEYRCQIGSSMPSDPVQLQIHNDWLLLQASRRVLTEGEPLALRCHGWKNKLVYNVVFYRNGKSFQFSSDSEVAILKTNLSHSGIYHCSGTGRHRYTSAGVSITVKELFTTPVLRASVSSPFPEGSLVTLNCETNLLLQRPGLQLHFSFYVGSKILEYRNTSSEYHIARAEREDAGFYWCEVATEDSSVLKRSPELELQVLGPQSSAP
As to the kind of experiment: SPR (Biacore T200, pH 7.4, 25 °C): His-tagged FcγR captured by anti-His antibody; antibody injected at 100 nM alone (Ab alone) or as 1:1 complex with trimeric CD154 (CD154 IC); binding level / capture level [A].

Another assay has as its target T9, mouse FcγRIV (mouse, UniProt A0A0B4J1G0 21-203).
T9 construct: also called mFcγRIV; mouse FcγR4
T9 sequence: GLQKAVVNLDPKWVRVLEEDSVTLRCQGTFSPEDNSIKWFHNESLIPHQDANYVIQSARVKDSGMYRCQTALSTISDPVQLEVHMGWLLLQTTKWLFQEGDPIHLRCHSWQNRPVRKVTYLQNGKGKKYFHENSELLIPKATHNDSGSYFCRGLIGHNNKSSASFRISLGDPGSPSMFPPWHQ
Briefly: SPR (Biacore T200, pH 7.4, 25 °C): His-tagged FcγR captured by anti-His antibody; antibody injected at 100 nM alone (Ab alone) or as 1:1 complex with trimeric CD154 (CD154 IC); binding level / capture level [D].

For a further assay, the target named is T10, human FcγRIIIb (NA1) (human, UniProt O75015 17-200).
T10 construct: also called human FcγR3b allelic variant NA1
T10 chain: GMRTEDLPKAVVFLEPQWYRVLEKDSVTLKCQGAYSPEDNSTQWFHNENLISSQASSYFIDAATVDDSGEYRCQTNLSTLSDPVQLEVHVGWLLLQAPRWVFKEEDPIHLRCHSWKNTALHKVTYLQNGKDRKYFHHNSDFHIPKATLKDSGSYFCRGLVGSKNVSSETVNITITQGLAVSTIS
Briefly: SPR (Biacore T200, pH 7.4, 25 °C): His-tagged FcγR captured by anti-His antibody; antibody injected at 100 nM alone (Ab alone) or as 1:1 complex with trimeric CD154 (CD154 IC); binding level / capture level [G].

The target of another assay is T11, human FcγRIIb (human, UniProt P31994 43-217).
T11 construct: also called human FcγR2b
T11 sequence: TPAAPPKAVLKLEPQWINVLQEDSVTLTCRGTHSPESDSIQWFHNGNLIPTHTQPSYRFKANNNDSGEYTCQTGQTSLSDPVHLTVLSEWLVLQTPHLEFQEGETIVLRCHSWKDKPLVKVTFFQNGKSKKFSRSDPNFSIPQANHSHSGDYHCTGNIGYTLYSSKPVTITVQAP
As to the kind of experiment: SPR (Biacore T200, pH 7.4, 25 °C): His-tagged FcγR captured by anti-His antibody; antibody injected at 100 nM alone (Ab alone) or as 1:1 complex with trimeric CD154 (CD154 IC); binding level / capture level [D].

Positions count from the first letter of the chain named. Where two headings read alike, the source gives them in different places.

B1: DG_3CH-SG182/3CL-SK1 (antibody, human IgG1, kappa, V domains shown)
VH: QVQLVQSGPDVEKPGASVKVSCKASGYTFTSNYIHWVRQAPGQGLEWMGVINPRGGSTASAQKFQGRITMTRDTSTSTVYMELSSLRSDDTAVYYCARGGRALFYDSYTTPRDGGSWWFDPWGQGSLVTVSS
VL: DIQLTQSPSSLSASVGDRVTFTCQASQDIRKYLNWYQQKPGKAPKLLIYDASNLKTGVPSRFSGSGSGTDFTFTISSLQPEDVATYYCQQFDDLPITFGQGTRLQIKR
B1: the equilibrium dissociation constant (Kd) is 16.9 nM in [1], 32.1 nM in assay [2], 6.07 nM in assay [3] and 22.5 nM in assay [4].

B2: DG_3CH955-SG182/3CL-SK1 (antibody, V domains shown)
VH: B1 VH with T58R, A59R, D89E, G114L
VL: B1 VL
Take B2: the Kd in [5] is 0.794 nM; in [1] it was 7.8 nM; in [2] it was 1.13 nM; in assay [3], 0.205 nM.

B3: DG_3CH-SG182/3CL563-SK1 (antibody, V domains shown)
VH: B1 VH
VL: B1 VL with K31Q, T56F, D92S, D93A
Consider B3, for which the Kd in assay [5] was determined as 4.43 nM; in assay [1] it was 11.8 nM; in assay [2] it was 13.4 nM; in assay [3], 3.52 nM.

B4: DG_3CH953-SG182/3CL499-SK1 (antibody, V domains shown)
VH: B1 VH with T58R, A59R, D89E, R112F
VL: B1 VL with T56F, D93A
In the case of B4, the Kd is 0.905 nM in assay [5], 5.99 nM in assay [1], 1.46 nM in assay [2] and 0.211 nM in assay [3].

B5: DG_3CH954-SG182/3CL-SK1 (antibody, V domains shown)
VH: B1 VH with T58R, A59R, D89E, G114D
VL: B1 VL
B5: the Kd in assay [5] came to 0.122 nM; in assay [1], 4.35 nM; in assay [2] it was 0.887 nM; in [3], 0.124 nM.

B6: DG_3CH-SG182/3CL499-SK1 (antibody, V domains shown)
VH: B1 VH
VL: B1 VL with T56F, D93A
For the molecule B6, the equilibrium dissociation constant (Kd) in assay [5] amounted to 4.73 nM; in assay [1] it was 8.35 nM; in [2], 11.1 nM; in assay [3] it was 4.03 nM.

B7: Anti-CD154 antibody (SLAPH0336a/SLAPL0336a) with Fc variant LALA+KAES (SG1095) (antibody, human IgG1, kappa, L234A L235A)
heavy: EVQLVESGGGSVKPGGSLKLSCAASGFTFSDHYMYWVRQTPEKRLEWVAIISGGGSYTSYPDSMKGRFTISRDNAKNILHLQMSSLKSEDTAMYYCTRESNGKPGFAYWGQGTLVTVSAASTKGPSVFPLAPSSKSTSGGTAALGCLVKDYFPEPVTVSWNSGALTSGVHTFPAVLQSSGLYSLSSVVTVPSSSLGTQTYICNVNHKPSNTKVDKRVEPKSCDKTHTCPPCPAPEAAGGPSVFLFPPKPKDTLMISRTPEVTCVVVDVSHEDPEVKFNWYVDGVEVHNAKTKPREEQYNSTYRVVSVLTVLHQDWLNGKEYKCKVSNAALPAPISKTISKAKGQPREPQVYTLPPSREEMTKNQVSLTCLVKGFYPSDIAVEWESNGQPENNYKTTPPVLDSDGSFFLYSKLTVDKSRWQQGNVFSCSVMHEALHNHYTQKSLSLSP
light: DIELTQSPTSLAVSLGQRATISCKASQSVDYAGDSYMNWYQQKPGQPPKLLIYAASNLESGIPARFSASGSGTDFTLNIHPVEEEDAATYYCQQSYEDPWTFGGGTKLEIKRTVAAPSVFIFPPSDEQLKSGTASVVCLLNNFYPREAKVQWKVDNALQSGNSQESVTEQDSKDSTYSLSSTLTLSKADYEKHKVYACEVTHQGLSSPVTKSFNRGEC
For the molecule B7, the binding result (in the assay with human FcγRIIIa (158V); in assay [6]; in the assay with human FcγRIa; in the assay with human C1q (Calbiochem)) was “binds” each time.

B8: LALA + KDES (antibody, human IgG1, kappa, L234A L235A)
heavy chain: B7 heavy with A328D
light chain: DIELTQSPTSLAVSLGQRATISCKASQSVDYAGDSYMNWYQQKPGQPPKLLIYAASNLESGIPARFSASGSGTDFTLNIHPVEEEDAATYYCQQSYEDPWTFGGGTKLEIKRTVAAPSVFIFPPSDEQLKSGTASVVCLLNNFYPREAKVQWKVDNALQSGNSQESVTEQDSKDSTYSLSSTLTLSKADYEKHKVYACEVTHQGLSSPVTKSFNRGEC
notes: also called Anti-CD154 antibody (SLAPH0336a/SLAPL0336a) with Fc variant LALA+KDES (SG1096); SG1096
In the case of B8, in the assay with human C1q (Calbiochem), the binding result is “binds”.

B9: Anti-CD154 antibody (SLAPH0336a/SLAPL0336a) with Fc variant LALA+KEES (SG1097) (antibody, human IgG1, kappa, L234A L235A)
heavy: B7 heavy with A328E
light: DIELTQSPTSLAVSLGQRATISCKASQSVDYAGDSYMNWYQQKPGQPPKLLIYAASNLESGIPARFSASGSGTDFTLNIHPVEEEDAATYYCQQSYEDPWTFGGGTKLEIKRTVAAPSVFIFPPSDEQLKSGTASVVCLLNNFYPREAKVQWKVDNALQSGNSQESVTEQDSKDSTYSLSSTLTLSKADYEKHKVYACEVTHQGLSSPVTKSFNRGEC
Consider B9, for which the binding result with human C1q (Calbiochem) was “binds”.

B10: Anti-CD154 antibody (SLAPH0336a/SLAPL0336a) with Fc variant LALA+KMES (SG1098) (antibody, human IgG1, kappa, L234A L235A)
heavy: B7 heavy with A328M
light: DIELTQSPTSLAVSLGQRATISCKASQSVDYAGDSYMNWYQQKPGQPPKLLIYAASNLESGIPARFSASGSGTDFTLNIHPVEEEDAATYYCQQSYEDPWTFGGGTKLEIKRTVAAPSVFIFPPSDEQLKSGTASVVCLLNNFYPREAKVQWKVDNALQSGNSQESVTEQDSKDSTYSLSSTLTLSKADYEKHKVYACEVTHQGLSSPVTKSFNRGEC
As for B10, the binding result with human C1q (Calbiochem) is recorded as “binds”.

B11: EFT (antibody, human IgG1, kappa)
heavy chain: B7 heavy with A236L, A237L, S269E, H270F, S326T, A328K, S335E
light chain: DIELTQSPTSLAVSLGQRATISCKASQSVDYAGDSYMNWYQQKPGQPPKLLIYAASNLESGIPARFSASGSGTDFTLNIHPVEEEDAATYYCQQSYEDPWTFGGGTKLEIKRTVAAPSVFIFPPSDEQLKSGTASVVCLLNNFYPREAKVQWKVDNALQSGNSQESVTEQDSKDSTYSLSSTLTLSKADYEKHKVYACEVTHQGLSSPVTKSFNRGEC
notes: also called Anti-CD154 antibody (SLAPH0336a/SLAPL0336a) with Fc variant EFT (SG1087); SG1087
In the case of B11, the binding result in the assay with mouse FcγRIII is given as “binds”; with human FcγRIIIa (158V), “binds”; with human FcγRIa it was “binds”; with mouse FcγRI it was “binds”; with mouse FcγRIV, “binds”; in the assay with human FcγRIIIb (NA1), “no binding (tested: 100 nM)”. The binding result with human FcγRIIb is “binds”.
